Earlier results as cited in article PMC5433096.

Target: PhoB (Escherichia coli) (UniProt P0AFJ5)
Sequence of UniProt P0AFJ5 (P0AFJ5 whole entry): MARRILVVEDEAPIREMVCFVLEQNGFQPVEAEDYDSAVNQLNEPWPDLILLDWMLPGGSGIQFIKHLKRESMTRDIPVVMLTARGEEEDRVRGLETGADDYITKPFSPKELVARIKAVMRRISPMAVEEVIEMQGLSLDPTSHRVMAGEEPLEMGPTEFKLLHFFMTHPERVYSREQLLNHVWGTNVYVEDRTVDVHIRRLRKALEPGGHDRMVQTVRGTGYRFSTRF

PhoR (from UniProt P08400)
Kd: 3 µM
